{"source": "patent US10005838B2", "about": "“Milk fat globule epidermal growth factor 8 regulates fatty acid uptake” (REGENTS OF THE UNIVERSITY OF CALIFORNIA, priority 2013, dated 2018)", "key": {"3T3-L1 adipocytes": {"test_system": "3T3-L1 adipocytes", "assay": "Fluorescent fatty acid uptake assay in 3T3-L1 adipocytes", "assay_type": "cell-based, mouse", "method": "Uptake of fatty acids by differentiated 3T3-L1 adipocytes or primary mouse adipocytes was assessed using a QBT Fatty Acid Uptake Kit (Molecular Devices). Cells were plated in triplicate in 96-well plates at a concentration of 25,000 cells per well in 100 μl of DMEM/10% FCS. Plates were centrifuged at 1000 rpm for 4 minutes and incubated at 37° Celsius for 4-5 hours. Cells were then serum deprived for 1 hour before treatment with recombinant proteins for 30 minutes followed by the addition of QBT Fatty Acid Uptake solution. […] Plates were incubated in a fluorescent plate reader at 37° Celsius and kinetic readings were acquired every 20 seconds for 30 minutes. Fluorescence values were plotted against time and data was expressed as relative fluorescent units per minutes×10^3. […]"}, "[1]": {"assay": "Liver and small intestine triglyceride content after olive oil gavage", "assay_type": "in vivo, mouse", "details": "Mfge8−/− mice; 8 hours after olive oil gavage", "method": "(§1) 6-8 week-old mice were fasted for 4 hours and then gavaged with 15 μL olive oil per gram body weight. Mice had access to water but not food for the remainder of the experiment. In the experiments in FIGS. 3C and 3F, 50 μg/kg body weight of recombinant protein was mixed into olive oil and administered immediately to mice by gavage. In blocking antibody experiments, integrins αv (clone RMV-7) and 05 (clone ALULA) were administered by gavaging mice with 100 μL water containing 0.5 μg antibody per gram body weight 30 minutes before olive oil gavage. Triglyceride content of serum was assayed using a commercially available kit (Sigma-Aldrich) and fatty acid concentrations were quantified by Wako (Rabot, S. et al., FASEB J 24, 4948-4959 (2010)).\nAfter experiments described above, samples from the left lobe of the liver and the proximal small intestine were isolated and rapidly frozen in liquid nitrogen for triglyceride content assays. Control mice were starved for 8 hours before their organs were harvested as above. Triglyceride content of the intestine (Uchida, A. et al., Front Physiol 3, 26) and liver (Kim, K. Y. et al., J Clin Invest 121, 3701-3712 (2011)) and fecal samples Kim, K. Y. et al., J Clin Invest 121, 3701-3712 (2011)) were quantified as described previously."}, "cardiac myocytes": {"test_system": "cardiac myocytes", "assay": "Fatty acid uptake in primary cardiac myocytes", "assay_type": "cell-based, mouse"}, "[2]": {"assay": "Olive oil gavage, serum triglycerides", "assay_type": "in vivo, mouse", "method": "as §1"}, "AKT": {"test_system": "AKT", "assay": "Western blot of antral tissue, AKT phosphorylation", "parameters": "species or system mouse", "details": "antral tissue treated for 30 minutes", "method": "In FIG. 14A, the antral rings were treated for 15 min with PI3K inhibitor wortmannin (Wort.100 nm) followed by assessment of contractile force in response to MCh. N=3-4. ***P<0.0001. […] Western blot of antral tissue were treated for 30 minutes with or without rMfge8. […] Western blot of antrum were treated for 30 minutes with wortmannin (100 ng/ml) or Mfge8 and then with MCh for 15 minutes prior to quantifying active RhoA using a GST pull-down. […] PTEN activity assay measured the conversion of PIP3 to PIP2 in freshly isolated antrum with and without the rMfge8 or RGE construct (10 μg/ml) n=3-5. *P<0.05, **P<0.01, ***P<0.001."}}}
{"molecule": "rMfge8: recombinant Milk Fat Globule Epidermal Growth Factor 8, an integrin ligand, expressed in High 5 cells (protein) ASGDFCDSSLCLNGGTCLTGQDNDIYCLCPEGFTGLVCNETERGPCSPNPCYNDAKCLVTLDTQRGDIFTEYICQCPVGYSGIHCETETNYYNLDGEYMFTTAVPNTAVPTPAPTPDLSNNLASRCSTQLGMEGGAIADSQISASSVYMGFMGLQRWGPELARLYRTGIVNAWTASNYDSKPWIQVNLLRKMRVSGVMTQGASRAGRAEYLKTFKVAYSLDGRKFEFIQDESGGDKEFLGNLDNNSLKVNMFNPTLEAQYIKLYPVSCHRGCTLRFELLGCELHGCSEPLGLKNNTIPDSQMSASSSYKTWNLRAFGWYPHLGRLDNQGKINAWTAQSNSAKEWLQVDLGTQRQVTGIITQGARDFGHIQYVASYKVAHSDDGVQWTVYEEQGSSKVFQGNLDNNSHKKNIFEKPFMARYVRVLPVSWHNRITLRLELLGC", "values": [{"measurement": "fatty acid uptake (BODIPY fatty acid analog)", "setting": "3T3-L1 adipocytes", "value": "significantly increased"}, {"measurement": "liver triglyceride levels after gavage", "setting": "[1]", "value": "increased significantly"}, {"measurement": "fatty acid uptake in Mfge8−/− cardiac myocytes", "setting": "cardiac myocytes", "value": "rescued"}, {"measurement": "serum triglyceride levels after olive oil gavage", "setting": "[2]; Mfge8−/− mice, 50 μg/kg recombinant protein mixed into olive oil", "value": "significantly raised"}, {"measurement": "WT serum triglyceride levels after olive oil gavage", "setting": "[2]; WT mice, recombinant protein mixed into olive oil", "value": "significantly increased"}, {"measurement": "AKT phosphorylation in antral tissue", "setting": "AKT", "value": "reduces"}]}
